The source of these data is patent EP4671273A1.

The target of experiment [1] is hPD-1 expressed on Jurkat cells (human) (UniProt Q15116). In words: flow cytometry on Jurkat PD-1 cells, competitor nivolumab at 100x molar excess. Background: Flow cytometry measures light scatter and fluorescence of single cells or particles in a stream.
Experiment [2] shares this target. In words: flow cytometry on Jurkat PD-1 cells, competitor pembrolizumab at 100x molar excess.

Sequence of hPD-1 expressed on Jurkat cells (human) (Q15116 25-288): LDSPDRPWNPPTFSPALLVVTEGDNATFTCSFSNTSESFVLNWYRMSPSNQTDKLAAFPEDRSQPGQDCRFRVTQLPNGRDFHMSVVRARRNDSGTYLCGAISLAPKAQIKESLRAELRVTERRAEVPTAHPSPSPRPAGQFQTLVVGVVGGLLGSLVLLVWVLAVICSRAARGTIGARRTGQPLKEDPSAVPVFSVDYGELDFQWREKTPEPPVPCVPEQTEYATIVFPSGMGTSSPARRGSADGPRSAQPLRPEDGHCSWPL

B1: XVT458-z2-m6 (antibody, human IgG1, V domains shown)
VH: VQLVQSGAEVKKPGASVKVSCKASGYTFTNFYIHWVRQAPGQGLEWMGSIYPNYGITAYNQKFKDRVTMTVDTSTSTAYMELRSLRSDDTAVYYCARGYSYAMDYWGQGTTVTVSS
VL: DIQMTQSPSSVSASVGDRVTITCSASQGISGDLNWYQQKPGKAPKLLIYHTSQLHSDVPSRFSGSGSGTDFTLTISSLQPEDFATYYCQGYSKDLLTFGGGTKLEIK
In the case of B1, the signal inhibition in % in experiment [1] and in experiment [2] was 8.66% in each case.
